13 molecules from patent US20220153796A1 (IMMATICS BIOTECHNOLOGIES, published 2022) can be followed below.

The first assay has as its target HLA-A*01 (human). The experiment in a line: UV peptide exchange ELISA. (In general: In an ELISA, binding on a coated surface is turned into a signal by an enzyme label.)
In turn, NTDNNLAVY showed a peptide exchange yield above 75%.

As for ASEQQALHTVQY, the peptide exchange yield was above 75%.

With ECDMAFHIY, the peptide exchange yield was above 75%.

The molecule VTDGSLYEGVAY returned a peptide exchange yield above 75%.

With WMFFVINY, the peptide exchange yield lay in the range of 10 to 20%.

ATDLVVLDRY: the peptide exchange yield was above 75%.

Regarding VVDSVGGYLY, the peptide exchange yield was above 75%.

Turning to VVADTKMIEY, the peptide exchange yield was 10 to 20%.

The target of the next assay is HLA-A*02 (human). Put plainly: UV peptide exchange ELISA.
The molecule ALCLLLHLL returned a peptide exchange yield of 10 to 20%.

LMAFFLAVV displayed a peptide exchange yield of 20 to 50%.

Another assay has as its target HLA-A*03 (human). Put plainly: UV peptide exchange ELISA. The text has this: (§1) Candidate peptides for T cell based therapies according to the present invention were further tested for their MHC binding capacity (affinity). The individual peptide-MHC complexes were produced by UV-ligand exchange, where a UV-sensitive peptide is cleaved upon UV-irradiation, and exchanged with the peptide of interest as analyzed. Only peptide candidates that can effectively bind and stabilize the peptide-receptive MHC molecules prevent dissociation of the MHC complexes. To determine the yield of the exchange reaction, an ELISA was performed based on the detection of the light chain (β2m) of stabilized MHC complexes. The assay was performed as generally described in Rodenko et al. (Rodenko et al., 2006).
(§2) 96 well MAXISorp plates (NUNC) were coated over night with 2 ug/ml streptavidin in PBS at room temperature, washed 4× and blocked for 1 h at 37° C. in 2% BSA containing blocking buffer. […] Peptide-MHC monomers of the UV-exchange reaction were diluted 100-fold in blocking buffer. Samples were incubated for 1 h at 37° C., washed four times, incubated with 2 ug/ml HRP conjugated anti-β2m for 1h at 37° C., washed again and detected with TMB solution that is stopped with […]. Absorption was measured at 450 nm.
For the molecule KLYAWELAF, the peptide exchange yield was 50 to 75%.

KTLVAELLILK displayed a peptide exchange yield of 50 to 75%.

The next assay addresses HLA-B*07 (human). Put plainly: UV peptide exchange ELISA.
Source text: as §1, §2
In turn, SAYPQRLEI gave a peptide exchange yield of 10 to 20%.
